Source: the DeepSol protein solubility set

Assay: soluble on expression in E. coli; label from the status in PepcDB or PDB records

Sequence | soluble on expression in E. coli
MGSDKIHHHHHHMPFSSAALHALLQPGVSERWQAVQRLLHPEMLVLANRAAERAAALLPQQWPLYELSFKSRRAIDRGGGRRDPITDYWFAFDRPPRGAGVMLTVSGIERTVTVGLQLWGVRRPQLAHLWSQARPVWEALIDRIEHEGQARFAGRRPPMTGMRWIDHYLNSRAHYLWAGFVYDWNALPTAERLIDDICALLPLNEALMEQAEIDLATTNTLRETPARYLTGAPSVAQIVMSIKRRGMIIDERTLHAFHLAVQARPLVILAGPSGSGKTWLTRLYADALIGIGEGQPNPCYLLVAVQPDWHSARDLLGYYNSLTGLYQPTPFLNFLLKAAADPDQTYIVCLDEMNLARPEYYLAPILSAMEAVEGLIDLGTPLAETPLAGGGVVRNPIRLPINLRLIGTINVDESTFALSDKVLDRANLIELGTVDMAALALTVSDSKRSGLADIERHPAPPDCCRKAGRLPRLARDTWLRWAGNRYERFRSTRSSDSAAPATALAR | not soluble
MSLIKKVLPLAEQLRPKNLNDIVGQDHILGENGLITKTIESQIPLSVILWGPPGCGKTSIARLYAQAFNMQFISMSAIFSGVADLKKTIKEAQNQPLFHKGTLLFVDEIHRFNKSQQDAFLPFVENGTIILIGATTENPSFYLNGALLSRLRVLPIYPLDGFSLEQLLERYEKQFAPLPLTAEARHWLITCAQGDGRYLYNLIENLRYASKQILDIPLLEKIFQKRSPLFDKRGDQHYNLISALHKSVRGSDPNAAIYWFTRMLEGGEEPLFLARRLIRMAVEDIGLSDPQALPLAIAAKDAYEMLGSPEGELALAEVVIYLALAPKSNAVYRAFGMAKESASKTSYLNPPLTILNAPTKMMKNLGYGKDYQYDPDLPEAFSGQNYFPDSLEKQHFYEPVERGFERELKKRLEYFEQLRLKKKEGHHHHHH | soluble
GSMHEYSVVSSLIALCEEHAKKNQAHKIERVVVGIGERSAMDKSLFVSAFETFREESLVCKDAILDIVDEKVELECKDCSHVFKPNALDYGVCEKCHSKNVIITQGNEMRLLSLEMLAE | soluble
MGSDKIHHHHHHMMQALKIDEEIWQMFPEARFEVLVVKGINNQSKADEYYQELLDRAIEKSQKYIANDVFRDNPVVSEWRTAFTKFKKKKGARASIEALLKRVSQGKSLSPINPLVDIYNSISLEYGVPCGGEDLQKMDGTMHLGVAKGGESFRPLGSDEDEPALPGEVIYYDATGAICRCFNWREAQRTMLTEDTTDAVMVIEAINADQAQRAKSAIEKLKELVESKLNATGEHFTLQAQ | not soluble
GPGSMEGSGSYRLKRGRDELSTPPASGNFPASDQRGTQNLLRCPWCPNGHLMRPAAKSPTNNSKEEGTHLCTNRSSCPCGAVIDQDRTMSFSCIDGSDLIRNFYNALDDHLETCQIVSQTPSQRDWAPWSIVAERSILFADPSNRKQRHSVDCSPPSLSPDPKGPVFYFLHCDNCGEKEFVC | not soluble
MIQPRIRQNPFETYEEVAEGFEDLLAPLELFFDREYQGHLDLGTHGTVYSKGTRDAEAFLRPLWGLGPYVTQNESEYLNDFLTGIIEGTDPESSSYWGKTKDYDQLIVEMAALSTFLLLNKEKTWDQLTKEQQNNLHSWLIQANENIIPPNNWHFFRVLLNLAMKHCEMPYSKEQIAVDLAVIDRFYVGNGWYYDGVETQVDYYVSFAIHYYSLLYCRFAPEDTARVAIMKERATLFAQEFKYWFTQPGEAIPFGRSLTYRFAQVSFFSALVFADVEALPWGEIKGLISRHLHQWMNKDIFTTDGLLSVGYDYQNMVFAEGYNGPGSPYWAFKTFILLAVPKDHPYWQAETQPISFPEKHLPSPESRNYYQVNDAGTHGLMFPAGQFINYQAHAHDKYSKFVYSSHFGFSTIKSDYWYYEGAYDNCLALAEDDHYFRTKGLDDQYEILDDRIIHQWHPWSDVAIKTTIVPLEGQHLRIHEIETQRALVAYEGGFSIPLFDEKVTCVSDQMAEVKNAKGVSKVENINGFSEAAIIRTEPNTNLLYPLTELPYLKANLSKGKHLLISLVTGVLPNEQIEPVKVRLKENQLLVEEKVVILGN | soluble
MSSLAKLGYFFDEKGVLKTEKDKKPFKFTTQEDYEELGEAVDLEVYELLETRCGLKRKALKLPGKTDEDEDLSFIFVSKNFKKAANLLVLIHGSGVVRAGQWARRLIINDNLECGTQIPYIERAIENGWGVVVMNTNLNESKDQDLKYSRTPVEHAETVWIACIEPSNAKSIYVVAHSRGGYDTASVLKKFGGDDRISKICLTDSPWFEFPKSCAQRARPLFVVNFLAHGALNSPSYKVREYREGNVAELWAGTQIHEWSSHCAIDAVFHILETEMTPSNYAEVMEEAKKLVVKSENSKESDDEAPKSKKICV | not soluble
KVMMPKVEERDDSEAPKAFFSEYEICNPALDGKSVREVALLLKRPFVITRVWHNGKVEIPTSDMILYFGDHILAVSGEEDTSQLEILFGKREMKDWNRPDIDWNSVDKQLVSRRLVITRPKLNGVRLGMLKIRNLYGVNISRVDRAGVELLPDRDLRLQLGDRLTVVGEGKAVERVAEILGDEVKQLDNPH | not soluble
MGHHHHHHSHMLIPKTMGKMSPGHVRDLHGSPSHHRPRGPGGKSGFVGWAQGLCAVCSLGTWCPVSQLLQPWLKGANIELGLWLQRVEAPSIGSFHVMLSLWVQRCQELRFGNLCLDFRIYMETPGCPGKSLLQGQSPHGEPLLGQCGREMWGRAPTQSPCWGTA | not soluble
DVVSYVSHATQQRLQNLVEKISETAQQKNFSYKDDDRYEQASDVRAQLKFFEQLDQIEKQRKDEQEREILMRAAKSRSRQEDPEQLRLKQKAKEMQQQELAQMRQRDANLTALAAIGPRKKRKVDCPGPGSGAEGSGPGSVVPGSSGVGTPRQFTRQRITRVNLRDLIFCLENERETSHSLLLYKAFLK | soluble
MIVGAGPAGIRAAAALADAGLHPVVIDEGNRAGGQIYRRPPDGFVRTPGQLYGSEAAKARALHAVFDRLTADGRLTHCAGSSVIAVQTGRLHVLGEGGVQVIFYDRLILATGASDRVAPVPGWQSAGVYSLGAAQIALKAQGVALGRRIVLMGSGPLLTLVGAQLIKAGADVAAVLDTSPWRQQMRGLWKLAARPLVALRGLALRARLGGRYHAGVSLEKIEADGQGVTAMRWRDAGGRQRLTPCDTIGMGWHLRAETHLADLAGCAFTYDEQWRQWLPKTDRMGRAGNGVYLAGDGVRLLGADGAEIAGRLAAAACLADLGFPAPTNAADLRELTRLERFAHGLVCAFPWPAAMVRALPDAAIVCRCENVTAGAVRDSVDLGGGEANRVKSLSRLGMGRCQGRYCHLAAVELAAAQSGCTPDAVGRFRGQAPARPAPIGAFLPEGLEHHHHHH | not soluble
MSLDRVEVLGVEFVEFTADQTEAEALGSLLGAMGFRAVASHREKAVTLWRQGCDHRGINVVINTEQKGFAHSSYLVHGASAYAIGLKVPDASAAVERARALGAEIFLPESGEGEGAMAAIRGMGGGLIYFVDEIDDVWSREFVAPGDDRQPAATLVAIDHVAQSMKEEQLPSWLLFYTSILDADKLAQVDIVDPAGLVRSQVVENASGTLRLTLNGADNHREGHHHHHH | not soluble
MLRYLLLSMYLFYIKKRRCHHFFIIVNIILSVSMQNDNLPFKITACVYKIV | not soluble
MRTPYCVADYLLDRLTDCGADHLFGVPGDYNLQFLDHVIDSPDICWVGCANELNASYAADGYARCKGFAALLTTFGVGELSAMNGIAGSYAEHVPVLHIVGAPGTAAQQRGELLHHTLGDGEFRHFYHMSEPITVAQAVLTEQNACYEIDRVLTTMLRERRPGYLMLPADVAKKAATPPVNALTHKQAHADSACLKAFRDAAENKLAMSKRTALLADFLVLRHGLKHALQKWVKEVPMAHATMLMGKGIFDERQAGFYGTYSGSASTGAVKEAIEGADTVLCVGTRFTDTLTAGFTHQLTPAQTIEVQPHAARVGDVWFTGIPMNQAIETLVELCKQHVHAGLMSSSSGAIPFPQPDGSLTQENFWRTLQTFIRPGDIILADQGTSAFGAIDLRLPADVNFIVQPLWGSIGYTLAAAFGAQTACPNRRVIVLTGDGAAQLTIQELGSMLRDKQHPIILVLNNEGYTVERAIHGAEQRYNDIALWNWTHIPQALSLDPQSECWRVSEAEQLADVLEKVAHHERLSLIEVMLPKADIPPLLGALTKALEACNNA | soluble
MSLQRVSNRLIEQSDIENMPNTWKKQAYRQIAKKLGPKSNFPCIFSKNAYKKGLLQFVFMESISHDQMEELKVCLTEFIEANKEWDHRISTAKPLLIVFSTQAIKSERLEDYHSFGWNVLRSIHALDPSPWPHGVDKDPSSPNWSMCFNGMQLFINMSCPAHKVRRSRNLGDHFIMVVNPRERFDVVAGDNAKGHRVRDEIRGRIEIYDNCKPCKQLGYFGSDTMEWQQYGIIEENKTRTSKCPYKIDEGHHHHHH | soluble
